Test: protease stability score; higher = more stable; yeast display proteolysis, trypsin and chymotrypsin;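 also: log10 excess protease needed over predicted unfolded state with 0 meaning unfolded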

For “EEHLQERLTKLNEAEQKGDPKKILEQVDPNARVEVGDKTYHGMDRYARRVAKEMNEMRVEVHIKDLKVRGNNIHAEMSATHTKNGKPSHNEFTLVVVWNNGRVTSIVVTHKS”, the protease stability score was 0.717.
Work on “DDTQAREQAHRFMEAMRTGDPDTLRKLMDKDVRVTVGDHTYHGRESVAHAVITMVESIDHISVKDIKVENGTARVDFVVTVNGRRQSYDAVLEVDNGRIRYVQMHEK” yielded a protease stability score of 0.857.
For “DEDKLTDKAHQIIRALETGDPDQIRNLAPPNVRFDYGDKRYHGREKAEERAKRERENIDHMEIKDFDVQGNKIQIRAVVEHNGRSREFVVTFEQNNGTLRFARMQSK”, the protease stability score was -0.342.
With “DEELEDLASRIWKAIDHNNPDELKRNFDENVNAQVGDTTYHGMDDWAREIVHNLKEMRIHWSDMRVSKQGEQVRIKARFVTKHNGRPQNMRMTAVFEAHNGRVQDYKQNNRG” the protease stability score was -0.27.
Sequence “DEDVEDRVRRFLEQVNHNNPQDLSKYMDPNARLDIGDKVLHGREDIHKFWEDLIRESRIEVREMDVKVHNGRVSATVRFVEHENGNPRETVMKITATWSNGRAQFMRFQSDG” has a protease stability score of 0.82.
In the case of “DNEVAHNIMRAFKQQWRGNEDKALELMDPNAEVHVGNKQIHGMEEWVRRTAHKARRARVKVSRIDVTVHNGKVRIKMNYTVSVNGKPISWHADITVQADNGRAKHITQQVPEDLEERERG”, the protease stability score is reported as 0.112.
“DERKRAEKALNEWQRMWKYGNEEDFQKLADENVHFKYGDKTYRGREKMRKWVKEVLDSVDHVEVRIVSLHVRGDKITVRIRIYMEHNGRRTSFEYTMQLVDNNGHIVIVRFEQN” showed a protease stability score of 0.203.
“EEKNQHVAQQWLEMVQNGDPRKAKQQFDKDARVKIGDKELNGREEIVRQFEREQREMRVDIKDYKIDVNGDKVTVRLHVEVQSNGTPTTRDYVVHMQVHNGRVQMVIFRSDG” gave a protease stability score of 0.747.
Sequence “DEEHDEKVARSVARNITHGNEKSLRKQLPEDARVVYGDKTYHGRERAANVAKEFDERADHNRVDDLRVQNGRAELIFIVNVDGKNVRAVMIVDVHNGKAKLVMIKWTNPDDQRDLEK” has a protease stability score of 0.159.
For “DEEDNKTAKKLAKTGDPDEFAEQADEDVHIVVGDFEVHGRDELRKLMKRLKDHIDHKEIKRLRVHNGHVDLKFKAVFNGQEMEVSVILTARNGKIKRLEFRVRDDHAHELLEHLLK”, the protease stability score was 1.03.
For “DDKDMEQIKRLIEQLLTGDPDSAKRNFDENARVTIGDKTIEGRDDMRRWVDTVHKHAQLEITHMTVKVHGDKVKVNMDARRTHNGRPERATFKMDVELQNGKVKNQSIEIRK”, the protease stability score was 0.223.
In the case of “DDEEIKRLVKKAAHAFVDNDPDQFIRLLRDDVRARYGDKEVRGKESIKKQLQHWIHRIDHVEVKSFRAHGNSAEAHIVAIINGRTFDVHMDITFDNGRAHTVVFDVRSEEEFKEAMT”, the protease stability score is reported as 1.49.
In the case of “DEEDMKKVVKQLLEAAQNGNTEKIVQLVKKDVEFKLGDTEYRGQEDVRKVVKKLRDIGAEFHVKEYEATGGEAKVKTVWHIGDNEAHVEVKYTVEDDKVDRVEVRWSEKAQKQIKKG”, the protease stability score is reported as 0.801.
In the case of “DDELRHVAERFVQALDEGDPNELKEMADPNARMQVGDKYITGMETFVKHERKKMEKIRIEVVDFKANVNGDKVQVHFDVRFEVNGQPRRYSYVVIFQFRNGRISHVNVQVDPRQLKKNES”, the protease stability score is reported as 1.04.
Work on “DEDHNRRLAHTIVEILRTGDPDKMNEQLDPNARAHYGDHEIHGRENVAKMVKELHDRVDHFTVKTYDADGDHITIELVMKVNGRNVEMTVVVRVRNGRLVDLRYRYTSEEQEKTEKE” yielded a protease stability score of 2.12.
“DEHEEAKKVADRMIEVEKTGDEDSLTENFDPNVRFKIGDRTYHGEKDMQQLLREIKERADHIDIDVKHVTAHNGRADIDRVRVIQVDGQRRKQRIRMDLTFHNGRLHLKQMKVD” gave a protease stability score of 0.31.
For “DEENREVAERWLDALKRGDPKKANEQMDPNARLRVGNKTVHGREDFEQMIRKWQEHMSFSVETMTVQVEGNKIIIKATREVVVNGRPHKDTFEFEIEIQNGKIKEITIHFPEQELKEIED”, the protease stability score was 0.815.
In the case of “EDNRLQEIMEKFIRLMQTGDDHTAANLFDEDARIEYGDHSIRGREEFQKYAKELKDRVDHFDVQTIKNRGDEVHIDVNIHVDGKRVRVNMVVQAENGKVKKLRLDPEVVRHMEK”, the protease stability score is reported as 1.3.
Work on “DEEFNKEVKKMFDNLEKGNEEEYLRMLDENAKAQYGDHDVRGREELKKELHRQRKEIRVKYQSVDIRMHNGELSVRFRAEVVVNGRPHTVERTQSAKVQNGRVQSMKLKIDEEQKERLEG” yielded a protease stability score of -0.251.
Work on “DEERNKEMKEVLETNDFKDLANQADENAKAQIGDKEYHGREEVRDAMKSLQERIDSVEVRDIHVQGDKFSIEAVMDVDGDKVDVVIEMRVHNGNIKFVRINARNESVKEKVEQVVS” yielded a protease stability score of 1.79.

Source: the NTF2 design screens of Basanta et al. (2020)
